The values that follow come from US20130017251A1 (J DAVID GLADSTONE INSTITUTES, published 2013).

Test [1] has as its target T1, DMPC-lipidated apoE3 (DMPC:apoE=4:1) (human, UniProt P02649 19-317).
T1 construct: Same protein as m3, in complex with dimyristoyl phosphatidylcholine (not covalent)
Nature of the test: ELISA; lipid-free or DMPC-lipidated apoE coated (50 ng protein/well). The method, then:
(§1) Preparation of apoE and DMPC complex. Dimyristoyl phosphatidylcholine (DMPC) (Avanti Polar Lipids, Alabaster, Ala.) was used at a concentration of 20 mg/ml dissolved into phosphate-buffered saline (PBS). DMPC solution was sonicated for 6 min per cycle until the solution became clear and centrifuged at 14,000 rpm for 2 min to pellet debris. ApoE was then added to obtain various final stock concentrations and allowed to incubate at 23.7° C. overnight before use in enzyme-linked immunosorbent assay (ELISA) experiments.
(§2) ApoE ELISA. […] Wells were washed several times with wash buffer (PBS containing 0.1% bovine serum albumin (BSA)) and blocked for 1 h with 4% BSA in PBS. All incubations were performed at room temperature. […] Secondary antibodies against goat or mouse IgG labeled with horse radish peroxidase (HRP) diluted in blocking buffer were added to the wells after several washes and incubated for 1 h. […] substrate (Thermo-Pierce) was used to visualize the amount of bound secondary antibody at 450 nm on a SpectraMax190 plate reader (Molecular Devices) using Softmax Pro software for data collection.
(§3) All experiments were performed in triplicate. Values are mean±SD. OD, optical density.
A general note: ELISA stands for enzyme-linked immunosorbent assay.

Test [2] concerns the target T2, DMPC-lipidated apoE4 (DMPC:apoE=4:1) (human, UniProt P02649 19-317).
T2 construct: Same protein as m2, in complex with dimyristoyl phosphatidylcholine (not covalent)
The description is as above. The method, then:
as §1, §2, §3

The target of test [3] is T3, recombinant human apolipoprotein E4, full length (human, UniProt P02649 19-317).
T3 construct: Recombinant protein in ELISA; expressed in transfected Neuro-2a or C6 cells for western blot and cell staining; also called apoE4; apoE4(1-299)
Put plainly: ELISA; apoE coated (50 ng/well), 3H1 as primary antibody. The method, then: Secondary antibodies against goat or mouse IgG labeled with horse radish peroxidase (HRP) diluted in blocking buffer were added to the wells after several washes and incubated for 1 h. […] substrate (Thermo-Pierce) was used to visualize the amount of bound secondary antibody at 450 nm on a SpectraMax190 plate reader (Molecular Devices) using Softmax Pro software for data collection.
(§4) A, A schematic of different functional domains of human apoE. […] All experiments were performed in triplicate. Values are mean±SD. OD, optical density.

Test [4] has as its target T3, recombinant human apolipoprotein E4, …. Nature of the test: inhibition ELISA; apoE preincubated with 3H1 IgG, added to Aβ1-42-coated wells. The method, then: ApoE and Aβ binding assay. Aβ₁₋₄₂ (Biopeptides) was used to coat the surface of a 96-well plate at 330 ng/well and ELISA was performed essentially as described above. […] Subsequent detection of apoE bound with Aβ was performed with polyclonal anti-apoE, as stated above.
FIGS. 6A and 6B. […] After washing, the binding of apoE to Aβ was detected with polyclonal anti-apoE in an ELISA. […] After incubation, the mixture was added to Aβ₁₋₄₂-coated wells, and the binding of apoE to Aβ was detected with polyclonal anti-apoE after washing. All experiments were performed in triplicate. Values are mean±SD. OD, optical density.

Test [5] concerns the target T4, N-terminal 22-kDa fragment of apoE4 (aa 1-191) (human, UniProt P02649 19-209).
T4 construct: Range 1-191 is in apoE (299-residue) numbering
T4 chain: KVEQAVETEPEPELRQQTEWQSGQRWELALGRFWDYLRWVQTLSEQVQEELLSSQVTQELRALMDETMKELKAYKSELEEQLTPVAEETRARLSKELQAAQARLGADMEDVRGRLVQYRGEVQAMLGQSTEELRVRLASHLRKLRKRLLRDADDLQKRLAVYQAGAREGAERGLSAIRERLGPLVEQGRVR
Put plainly: ELISA on coated fragment. The method, then:
as §2, §4

Test [6] addresses T5, N-terminal 22-kDa fragment of apoE3 (aa 1-191) (human, UniProt P02649 19-209).
T5 construct: Range 1-191 is in apoE (299-residue) numbering
Put plainly: ELISA on coated fragment. The method, then: as §2, §4

The target of test [7] is T6, green fluorescent protein-apoE(231-272) (human, UniProt P02649 249-290, not fully specified).
T6 construct: Expressed in transiently transfected Neuro-2a cells; not shown: green fluorescent protein tag
T6 chain: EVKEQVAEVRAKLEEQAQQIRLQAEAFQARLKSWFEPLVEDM
Nature of the test: western blot, transfected Neuro-2a cells. The method, then: (§5) Cell culture, transfection, and western blotting. Mouse neuroblastoma (Neuro-2a) and astrocytic (C6) cells (American Type Culture Collection, Manassas, Va.) maintained at 37° C. in MEM containing 10% fetal bovine serum (FBS) were transiently transfected with different apoE cDNA constructs using Lipofectamine 2000 (Invitrogen) (Huang et al., 2001). Neuro-2a cells expressing different forms of apoE were collected in a low-detergent lysis buffer, separated by sodium dodecyl sulfate-polyacrylamide gel electrophoresis (SDS-PAGE), and immunoblotted for apoE with polyclonal and monoclonal antibodies, as described (Huang et al., 2001).
(A western blot detects proteins with antibodies after separation by electrophoresis.)

The next test deals with T7, apoE(1-240) (human, UniProt P02649 19-258).
T7 construct: If 1-244 is right the range is 19-262
Nature of the test: western blot, transfected Neuro-2a cells. The method, then: as §5

For the next test, the target named is T8, apoE(1-260) (human, UniProt P02649 19-278).
T8 construct: Expressed in transiently transfected Neuro-2a cells; also called apoE4(1-260)
Put plainly: western blot, transfected Neuro-2a cells. The method, then: as §5

B1: apoE-specific monoclonal antibody 3H1 (antibody, V domains shown)
VH: EVQLVESGGGLVKPGGSLKLSCAASGFTFSSYAMSWVRQTPEKRLEWVATISSGGSYTYYPDSVKGRFTISRDNAKNTLYLQMSSLRSEDTAMYYCARQFYYYGGSYDYFDYWGQGTTLTVS
VL: DIVLTQSPATLSVTPGDSVSLACRASQSISNNLHWYQQKSHESPRLLIKYAYQSISGIPSRFSGSGSGTDFTLSINSVETEDFGMYFCQQSNSWPLTFGVGTKLEIKR
notes: Mouse monoclonal IgG (detected with anti-mouse IgG; used as purified 3H1 IgG); also called 3H1 IgG; purified 3H1 IgG
For the molecule B1, the “fold increase of reactivity against lipid-free apoE3” value in [1] was around 120 fold. In addition, in test [2], the “fold increase of reactivity against lipid-free apoE4” value was around 20 fold. The “fold reactivity against apoE3” value in test [3] was determined as 9 fold. The “percent lower IC50 than for apoE3” value in test [4] is around 90%. Also, the binding result (in test [5]; in [6]; in [7]; with apoE(1-240); with apoE(1-260)) was “no binding” in each case.
